Each sequence was assayed on G-clamp-N3 (biotin conjugate) (assay: pull-down binding Z-score (relative to library population); higher = stronger binding). Conditions: RNA library: Library-1 (pre-miRNA loops + repeats).
Summary of the method: (§1)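 Streptavidin beads with 100 pmol of biotin-conjugated small molecule were incubated for 60 min at 25 °C with 1 μg of heat-folded Cy5- or Cy3-end-labelled RNA library in phosphate/NaCl/KCl buffer. Bound RNA was eluted in hot SDS after three washes and hybridised to a DNA barcode microarray at 55.5 °C for 20 h. Each binding score is a library-referenced Z-score, computed after beads-only subtraction and a trimmed mean of barcoded replicate probes.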
With “AGCCACUGCGGUCGACCAUGACCUGGA [hsa-mir-619]” the “pull-down binding Z-score” value was -0.783.
“AGCCCUGGGCUCCUCAGCAAACCUACUGGAU [hsa-mir-3174]” was tested, and the “pull-down binding Z-score” value was -1.41.
With “AGCCCUGUUGUUGUAAGAUAGUGU [hsa-mir-550a-1]” the “pull-down binding Z-score” value was -0.249.
“AGCCCUGUUGUUGUCAGAUAGUGU [hsa-mir-550a-2]” was tested, and the “pull-down binding Z-score” value was -0.331.
In the case of “AGCCUCCAAACCUGUAGACAGGGUCAUGCAGUACUAGGGGCGAG [hsa-mir-4478]”, the “pull-down binding Z-score” value is reported as -0.233.
In the case of “AGCCUUCUAUUAUGCCCAGACAGGGCCACCAGAGGGCU [hsa-mir-4448]”, the “pull-down binding Z-score” value is reported as -0.731.
In the case of AGCGCGAAAGU [hsa-mir-1539], the “pull-down binding Z-score” value is reported as 0.0302.
For AGCGCGGCGACCGUAACUCCU [hsa-mir-1237], the “pull-down binding Z-score” value was -0.629.
In the case of “AGCUGGCUGAAGGGCAGAAGGGAACUGUCCUUCAGCCAGAG [hsa-mir-4487]”, the “pull-down binding Z-score” value is reported as -0.139.
With AGCUGGGGCCGGGU [hsa-mir-4281] the “pull-down binding Z-score” value was 0.118.
For AGCUGGGUGGAGGCAGAGCU [hsa-mir-4291], the “pull-down binding Z-score” value was 1.95.
With AGCUGUGAAAGUCCUAGCU [hsa-mir-1256] the “pull-down binding Z-score” value was 0.661.
In the case of “AGCUGUGUUUUCUGACUCAGUCAUAAU [hsa-mir-365b]”, the “pull-down binding Z-score” value is reported as -0.674.
With AGCUGUUGAACUGGGAACCUGCU [hsa-mir-31] the “pull-down binding Z-score” value was 0.781.
With “AGCUGUUGGCCAUGGCGACAACACCU [hsa-mir-6742]” the “pull-down binding Z-score” value was 0.213.
“AGCUUCUACGUCAUUCAGCACUUGCU [hsa-mir-5706]” was tested, and the “pull-down binding Z-score” value was -0.819.
In the case of “AGCUUCUUUAUAAGAAGAGGAAACU [hsa-mir-3923]”, the “pull-down binding Z-score” value is reported as -0.169.
In the case of “AGCUUUAUGUAUUCUGAAGUUAUUGAAAAUAAGAGCU [hsa-mir-3140]”, the “pull-down binding Z-score” value is reported as -0.628.
For “AGGACACAGGCUGGCACUGAGGUCCC [hsa-mir-6887]”, the “pull-down binding Z-score” value was -0.394.
AGGACGGUGCGCCUUGUUUCCC [hsa-mir-3132] was tested, and the “pull-down binding Z-score” value was -1.1.
With “AGGAGAAGGUGAGACCAAUGUCCUGGGUGCCACUCCU [hsa-mir-6124]” the “pull-down binding Z-score” value was 0.515.
AGGAGGGUCC [hsa-mir-3141] was tested, and the “pull-down binding Z-score” value was -0.0548.
With AGGAGUUCACU [hsa-mir-1183] the “pull-down binding Z-score” value was -0.952.
For “AGGCAACAUGGCCGAGAGGCCGGGGCCU [hsa-mir-564]”, the “pull-down binding Z-score” value was 2.93.
In the case of “AGGCACAUAUGUGAACAUUGUACCA [hsa-mir-5707]”, the “pull-down binding Z-score” value is reported as -0.48.
For AGGCAUGGGUGGCU [hsa-mir-8085], the “pull-down binding Z-score” value was 0.379.
In the case of “AGGCAUUAGGAUCCUUAUUCUUGCCU [hsa-mir-4788]”, the “pull-down binding Z-score” value is reported as -0.175.
For AGGCCAUACGUGUUGGAGAUU [hsa-mir-4461], the “pull-down binding Z-score” value was 0.253.
In the case of “AGGCCGACGAGCAGCGCAUCCUCUUACCCGGCUA [hsa-mir-138-2]”, the “pull-down binding Z-score” value is reported as -1.48.
For “AGGCCGUUGCCAAUCAGAGAACGGCUA [hsa-mir-138-1]”, the “pull-down binding Z-score” value was -0.677.
“AGGCCUGAGUCUCUCUGCUGCAGAUGGGCUC [hsa-mir-422a]” was tested, and the “pull-down binding Z-score” value was -0.38.
AGGCUCUGCAAGAUCAACCGAGCA [hsa-mir-330] was tested, and the “pull-down binding Z-score” value was -0.474.
For “AGGCUCUGGGUCCGGCUUACUCCCUAGCUUACUGUCCUCAGAACCC [hsa-mir-6071]”, the “pull-down binding Z-score” value was -0.386.
For AGGCUGGUCUCAAACUCCU [hsa-mir-5096], the “pull-down binding Z-score” value was -0.82.
In the case of “AGGCUGUCUUCAUUCCCUCUUGACCACCC [hsa-mir-6795]”, the “pull-down binding Z-score” value is reported as -1.03.
“AGGCUUGGCACUUGAGGGAAAGCCU [hsa-mir-8059]” was tested, and the “pull-down binding Z-score” value was 2.67.
With “AGGGACCCCCGGAGUCUGUCACGGUCUCA [hsa-mir-6784]” the “pull-down binding Z-score” value was -0.402.
“AGGGCAAGUCCAAAGGUAUACAGUUGGUCUGUUCA [hsa-mir-7107]” was tested, and the “pull-down binding Z-score” value was 1.04.
In the case of “AGGGCAGCUCCCAUGACUGCCUGACCGC [hsa-mir-6880]”, the “pull-down binding Z-score” value is reported as -0.549.
AGGGCAGGGGUGUGGCU [hsa-mir-4751] was tested, and the “pull-down binding Z-score” value was 0.725.
With AGGGCCUUCUGAGCCCAGGUCCG [hsa-mir-6716] the “pull-down binding Z-score” value was 0.286.
AGGGCUGGGAUUACUAAAGCCCU [hsa-mir-1266] was tested, and the “pull-down binding Z-score” value was 1.24.
With “AGGGGACACGGGCAAAGACUUGGGGGUUCCUGGGACCCUCAGACGUGUGUCCUCU [hsa-mir-877]” the “pull-down binding Z-score” value was 0.447.
“AGGGGUCAUAUCUCUUCUCAGGGAAAGCAGGAGCCCUUCAGCAGGGUCAGGGCCCCU [hsa-mir-6891]” was tested, and the “pull-down binding Z-score” value was 1.5.
In the case of “AGGGUGGAGCCCACUGUGGCUCCUGACUCAGCCCU [hsa-mir-6893]”, the “pull-down binding Z-score” value is reported as -0.967.
In the case of AGGUAGUGAUAUGUGCAUCUACU [hsa-mir-17], the “pull-down binding Z-score” value is reported as -0.805.
With AGGUAGUGUGAUUACCCAACCUACU [hsa-mir-93] the “pull-down binding Z-score” value was 0.373.
AGGUAGUGUUUAGUUAUCUACU [hsa-mir-20a] was tested, and the “pull-down binding Z-score” value was 1.28.
In the case of AGGUCUCCUGGCAU [hsa-mir-4256], the “pull-down binding Z-score” value is reported as -0.698.
With AGGUGCUAGGUCGGCCUCGGC [hsa-mir-5787] the “pull-down binding Z-score” value was 1.28.
“AGGUGGAAAGGGAGCAGGAGCAUCGUCUUUAAGAGGGUCAGGUACCUUUGCUCUUA [hsa-mir-6083]” was tested, and the “pull-down binding Z-score” value was 0.244.
With AGGUUCUGCUGGCUGAGAACCU [hsa-mir-3667] the “pull-down binding Z-score” value was 2.19.
With “AGGUUGGCUGGGCCAGGCCUGACCU [hsa-mir-4722]” the “pull-down binding Z-score” value was 0.156.
For “AGGUUUAUGACUGGGCAUUUCUCACCCAAUGCCCAAUAUUGAACUU [hsa-mir-4431]”, the “pull-down binding Z-score” value was -0.59.
With “AGGUUUGUGUCCAAUACAGUCCACACCU [hsa-mir-3200]” the “pull-down binding Z-score” value was -0.861.
For “AGUAGCUGGGAAUACAGGUGUGUGCCACCAUGCCUCUACAAGCUACC [hsa-mir-7851]”, the “pull-down binding Z-score” value was -0.609.
In the case of “AGUAUGGAUUAAAUUUAUAUUUUCCUCGAUACU [hsa-mir-8084]”, the “pull-down binding Z-score” value is reported as 0.482.
“AGUAUUUUAAUCAUAGAUUGUAUUUAGUUAGUUUUUAAUACU [hsa-mir-4637]” was tested, and the “pull-down binding Z-score” value was -0.0232.
With AGUCACUUACACUACAUGUCACU [hsa-mir-892a] the “pull-down binding Z-score” value was -0.82.
For AGUCACUUAGAUUACAUGUCACU [hsa-mir-892c], the “pull-down binding Z-score” value was -1.24.
With AGUCACUUAGAUUACAUGUGACU [hsa-mir-888] the “pull-down binding Z-score” value was 0.394.
AGUCCAAAGGAAAGGGCU [hsa-mir-8077] was tested, and the “pull-down binding Z-score” value was -0.578.
In the case of “AGUCCGUGCAUCCGCCCUUCGAUGCUUGGGUU [hsa-mir-3182]”, the “pull-down binding Z-score” value is reported as -1.11.
AGUCCUGUAAUUAGAUCUCAGGACU [hsa-mir-625] was tested, and the “pull-down binding Z-score” value was -0.0681.
In the case of “AGUCUCUGAAGAGAGCUGUGGACUGA [hsa-mir-6721]”, the “pull-down binding Z-score” value is reported as 1.18.
AGUCUGUCUCAUACCCAACCAGAUU [hsa-mir-205] was tested, and the “pull-down binding Z-score” value was -1.11.
With “AGUGAAAUAAAGGUCCAUCUCCUGCCUAUUUAUUACUUUGCU [hsa-mir-1243]” the “pull-down binding Z-score” value was -1.12.
With AGUGAGCUGAGAUCACGCAACU [hsa-mir-1273f] the “pull-down binding Z-score” value was 0.617.
AGUGAGGCGUCGGCUGUGUUUCU [hsa-mir-2110] was tested, and the “pull-down binding Z-score” value was -0.519.
With AGUGAGUUGAUUACUUCUCACU [hsa-mir-4676] the “pull-down binding Z-score” value was -0.179.
In the case of “AGUGCAGUAUGGUGAAGUCAAUCUGUAAU [hsa-mir-590]”, the “pull-down binding Z-score” value is reported as 1.31.
With “AGUGCCUCACAGCCGCACAGGACCGAGGAUGCU [hsa-mir-4737]” the “pull-down binding Z-score” value was 0.613.
In the case of AGUGCUAGGACACU [hsa-mir-374c], the “pull-down binding Z-score” value is reported as -0.247.

What follows are sequences tested on TO-3-N3 (biotin conjugate) in the same assay as above. Conditions: RNA library: Library-2.
Summary of the method: as §1
“AGCCACUGCGGUCGACCAUGACCUGGA [hsa-mir-619]” was tested, and the “pull-down binding Z-score” value was 0.401.
With “AGCCCUGGGCUCCUCAGCAAACCUACUGGAU [hsa-mir-3174]” the “pull-down binding Z-score” value was 0.494.
With “AGCCCUGUUGUUGUAAGAUAGUGU [hsa-mir-550a-1]” the “pull-down binding Z-score” value was -0.325.
With “AGCCCUGUUGUUGUCAGAUAGUGU [hsa-mir-550a-2]” the “pull-down binding Z-score” value was 0.198.
“AGCCUCCAAACCUGUAGACAGGGUCAUGCAGUACUAGGGGCGAG [hsa-mir-4478]” was tested, and the “pull-down binding Z-score” value was -0.0187.
“AGCCUUCUAUUAUGCCCAGACAGGGCCACCAGAGGGCU [hsa-mir-4448]” was tested, and the “pull-down binding Z-score” value was -0.471.
With AGCGCGAAAGU [hsa-mir-1539] the “pull-down binding Z-score” value was -0.0926.
In the case of AGCGCGGCGACCGUAACUCCU [hsa-mir-1237], the “pull-down binding Z-score” value is reported as 0.152.
With “AGCUGGCUGAAGGGCAGAAGGGAACUGUCCUUCAGCCAGAG [hsa-mir-4487]” the “pull-down binding Z-score” value was -0.276.
AGCUGGGGCCGGGU [hsa-mir-4281] was tested, and the “pull-down binding Z-score” value was 1.37.
For AGCUGGGUGGAGGCAGAGCU [hsa-mir-4291], the “pull-down binding Z-score” value was 2.46.
With AGCUGUGAAAGUCCUAGCU [hsa-mir-1256] the “pull-down binding Z-score” value was 0.994.
With “AGCUGUGUUUUCUGACUCAGUCAUAAU [hsa-mir-365b]” the “pull-down binding Z-score” value was -0.26.
In the case of AGCUGUUGAACUGGGAACCUGCU [hsa-mir-31], the “pull-down binding Z-score” value is reported as -0.162.
“AGCUGUUGGCCAUGGCGACAACACCU [hsa-mir-6742]” was tested, and the “pull-down binding Z-score” value was -0.508.
“AGCUUCUACGUCAUUCAGCACUUGCU [hsa-mir-5706]” was tested, and the “pull-down binding Z-score” value was -0.62.
With “AGCUUCUUUAUAAGAAGAGGAAACU [hsa-mir-3923]” the “pull-down binding Z-score” value was 0.147.
“AGCUUUAUGUAUUCUGAAGUUAUUGAAAAUAAGAGCU [hsa-mir-3140]” was tested, and the “pull-down binding Z-score” value was -0.877.

— the supplement of paper PMC11865577
